In article PMC3037364 one finds decrease in invasion efficiency of RHΔama1/AMA1-myc parasites (about 10% of wild-type TgAMA1 level) after pre-incubation with 2.5-5 µM GST-D3, relative to buffer control data, which are given here for one substance.

The target in this experiment is TgAMA1, intact full-length integral membrane form (Toxoplasma gondii (endogenous in RH strain parasites)) (UniProt B6KAM0).
Chain of UniProt B6KAM0 (B6KAM0 67-569): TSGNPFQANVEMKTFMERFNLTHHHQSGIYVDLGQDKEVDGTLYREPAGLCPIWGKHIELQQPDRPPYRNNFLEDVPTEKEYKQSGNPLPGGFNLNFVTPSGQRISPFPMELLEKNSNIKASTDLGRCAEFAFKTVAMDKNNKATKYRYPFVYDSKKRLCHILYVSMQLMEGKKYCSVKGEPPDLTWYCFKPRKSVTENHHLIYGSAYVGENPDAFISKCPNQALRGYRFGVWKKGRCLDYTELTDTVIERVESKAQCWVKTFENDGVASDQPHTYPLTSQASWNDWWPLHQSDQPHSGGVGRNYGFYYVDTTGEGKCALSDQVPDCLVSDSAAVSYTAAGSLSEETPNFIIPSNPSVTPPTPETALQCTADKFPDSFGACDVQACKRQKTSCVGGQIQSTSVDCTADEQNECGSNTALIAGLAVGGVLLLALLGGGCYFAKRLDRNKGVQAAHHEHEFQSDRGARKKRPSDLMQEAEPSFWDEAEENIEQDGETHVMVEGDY

Substance “GST-domain 3 (D3) of TgRON2 (domain or fragment)” showed a decrease in invasion efficiency of RHΔama1/AMA1-myc parasites (about 10% of wild-type TgAMA1 level) after pre-incubation with 2.5-5 µM GST-D3, relative to buffer control of 87%.
